The values that follow come from patent publication US20160238591A1 (MIT, published 2016).

The test addresses T1, Cys2-pilin-C (Streptococcus pyogenes serotype M1, UniProt Q9A1S2 18-299, N-terminal Cys2 linker attached to the shell surface of the nanocrystal (QD or dot-in-rod HNC) during shell synthesis).
T1 construct: Tested only as a nanocrystal conjugate; also called QD-pilin-C; CdSe/CdS QD-pilin-C conjugates
T1 sequence: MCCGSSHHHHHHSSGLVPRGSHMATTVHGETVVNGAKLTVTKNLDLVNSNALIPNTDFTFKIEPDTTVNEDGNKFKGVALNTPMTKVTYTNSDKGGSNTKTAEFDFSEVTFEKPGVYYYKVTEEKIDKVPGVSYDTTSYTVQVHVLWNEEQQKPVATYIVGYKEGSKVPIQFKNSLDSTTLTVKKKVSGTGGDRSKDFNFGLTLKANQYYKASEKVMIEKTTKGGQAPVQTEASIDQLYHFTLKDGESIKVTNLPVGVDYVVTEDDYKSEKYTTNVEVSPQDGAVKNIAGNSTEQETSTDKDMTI
Nature of the test: TEM and HRTEM (FIGS. 11, 11A and 11B).

B1: CsgAHisTag amyloid fibrils (other)
chain: GVVPQYGGGGNHGGGGNNSGPNHHHHHHHSELNIYQYGGGNSALALQTDARNSDLTITQHGGGNGADVGQGSDDSSIDLTQRGFGNSATLDQWNGKNSEMTVKQFGGGNGAAVDQTASNSSVNVTQVGFGNNATAHQYHHHHHHH
notes: Fibrils composed only of CsgAHisTag subunits, used as a control for QD-pilin-C
Regarding B1, the binding result is “no binding”.
